The results in this text go back to patent publication US20110105394A1 (Novo Nordisk, published 2011).

*1 amine or outer side, *2 acyl side, *3 side chain or, on linkers, in order; H or OH if unused. Bridges are numbered along the chain shown (N, C = ends). Where no end group is shown, it is not given here. Side-chain parts run from the residue outwards. The star is where a group is joined. X2 = (S)‑4‑Carboxy‑4‑(19-carboxynonadecanoylamino)butyryl, O=C(O)CCCCCCCCCCCCCCCCCCC(=O)N[C@@H](CCC(=O)*)C(=O)O; C20 diacid = O=C(O)CCCCCCCCCCCCCCCCCCC(=O)*; γGlu = O=C(O)[C@H](CCC(=O)[*:2])N[*:1]; Trx = NC[C@H]1CC[C@H](C(=O)O)CC1; AEEA = NCCOCCOCC(=O)O

First the molecules themselves.
T1: Amylin 3(a) receptor (human calcitonin receptor (CTa) with RAMP-3) (human, UniProt P30988 25-474; O60896 24-148, limits assumed)
T1 sequence (looked up) 1: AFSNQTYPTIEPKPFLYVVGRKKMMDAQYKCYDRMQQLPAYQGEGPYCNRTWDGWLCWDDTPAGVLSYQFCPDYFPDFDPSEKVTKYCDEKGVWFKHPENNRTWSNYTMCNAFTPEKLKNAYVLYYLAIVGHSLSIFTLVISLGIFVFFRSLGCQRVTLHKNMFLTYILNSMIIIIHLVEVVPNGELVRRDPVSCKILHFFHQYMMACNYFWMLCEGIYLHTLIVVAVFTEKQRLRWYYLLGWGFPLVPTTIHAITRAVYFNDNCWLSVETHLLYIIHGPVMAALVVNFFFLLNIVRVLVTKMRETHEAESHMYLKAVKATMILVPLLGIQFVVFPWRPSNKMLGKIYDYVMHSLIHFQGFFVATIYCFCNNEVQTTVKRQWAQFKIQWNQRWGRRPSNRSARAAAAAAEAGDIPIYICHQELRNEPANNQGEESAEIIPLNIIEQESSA
T1 sequence (looked up) 2: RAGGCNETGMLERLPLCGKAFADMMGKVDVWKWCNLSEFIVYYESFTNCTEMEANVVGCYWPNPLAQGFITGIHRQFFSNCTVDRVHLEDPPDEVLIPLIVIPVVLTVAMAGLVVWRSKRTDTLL

B1: N-alpha-[(S)-4-Carboxy-4-(19-carboxynonadecanoylamino)butyryl]-His-Arg-[His17]-pramlintide (peptide)
peptide: HRKCNTATCATQRLANFLHHSSNNFGPILPPTNVGSNTY-NH2
modifications: disulfide 4-9; not fully specified (N-terminus); printed as N-alpha-[(S)-4-Carboxy-4-(19-carboxynonadecanoylamino)butyryl]-His-Arg-[His17]-pramlintide
B2: N-alpha-[2-(2-{2-[4-(S)-Carboxy-4-(19-carboxynonadecanoylamino)butyrylamino]ethoxy}ethoxy)acetyl]-His-[His1,His17]-pramlintide (peptide)
peptide: {C20 diacid-γGlu-AEEA}-HHCNTATCATQRLANFLHHSSNNFGPILPPTNVGSNTY-NH2
modifications: disulfide 3-8
SMILES: CC[C@H](C)[C@H](NC(=O)[C@@H]1CCCN1C(=O)CNC(=O)[C@H](Cc1ccccc1)NC(=O)[C@H](CC(N)=O)NC(=O)[C@H](CC(N)=O)NC(=O)[C@H](CO)NC(=O)[C@H](CO)NC(=O)[C@H](Cc1c[nH]cn1)NC(=O)[C@H](Cc1c[nH]cn1)NC(=O)[C@H](CC(C)C)NC(=O)[C@H](Cc1ccccc1)NC(=O)[C@H](CC(N)=O)NC(=O)[C@H](C)NC(=O)[C@H](CC(C)C)NC(=O)[C@H](CCCNC(=N)N)NC(=O)[C@H](CCC(N)=O)NC(=O)[C@@H](NC(=O)[C@H](C)NC(=O)[C@@H]1CSSC[C@H](NC(=O)[C@H](Cc2c[nH]cn2)NC(=O)[C@H](Cc2c[nH]cn2)NC(=O)COCCOCCNC(=O)CC[C@H](NC(=O)CCCCCCCCCCCCCCCCCCC(=O)O)C(=O)O)C(=O)N[C@@H](CC(N)=O)C(=O)N[C@@H]([C@@H](C)O)C(=O)N[C@@H](C)C(=O)N[C@@H]([C@@H](C)O)C(=O)N1)[C@@H](C)O)C(=O)N[C@@H](CC(C)C)C(=O)N1CCC[C@H]1C(=O)N1CCC[C@H]1C(=O)N[C@H](C(=O)N[C@@H](CC(N)=O)C(=O)N[C@H](C(=O)NCC(=O)N[C@@H](CO)C(=O)N[C@@H](CC(N)=O)C(=O)N[C@H](C(=O)N[C@@H](Cc1ccc(O)cc1)C(N)=O)[C@@H](C)O)C(C)C)[C@@H](C)O
B3: N-alpha-[(S)-4-Carboxy-4-(19-carboxynonadecanoylamino)butyryl]-His-[His1,Arg17]-pramlintide (peptide)
peptide: HHCNTATCATQRLANFLRHSSNNFGPILPPTNVGSNTY-NH2
modifications: disulfide 3-8; not fully specified (N-terminus); printed as N-alpha-[(S)-4-Carboxy-4-(19-carboxynonadecanoylamino)butyryl]-His-[His1,Arg17]-pramlintide
B4: N-alpha-[(S)-4-Carboxy-4-(19-carboxynonadecanoylamino)butyryl]-[His1,Arg17]-pramlintide (peptide)
peptide: {C20 diacid-γGlu}-HCNTATCATQRLANFLRHSSNNFGPILPPTNVGSNTY-NH2
modifications: disulfide 2-7
SMILES: CC[C@H](C)[C@H](NC(=O)[C@@H]1CCCN1C(=O)CNC(=O)[C@H](Cc1ccccc1)NC(=O)[C@H](CC(N)=O)NC(=O)[C@H](CC(N)=O)NC(=O)[C@H](CO)NC(=O)[C@H](CO)NC(=O)[C@H](Cc1c[nH]cn1)NC(=O)[C@H](CCCNC(=N)N)NC(=O)[C@H](CC(C)C)NC(=O)[C@H](Cc1ccccc1)NC(=O)[C@H](CC(N)=O)NC(=O)[C@H](C)NC(=O)[C@H](CC(C)C)NC(=O)[C@H](CCCNC(=N)N)NC(=O)[C@H](CCC(N)=O)NC(=O)[C@@H](NC(=O)[C@H](C)NC(=O)[C@@H]1CSSC[C@H](NC(=O)[C@H](Cc2c[nH]cn2)NC(=O)CC[C@H](NC(=O)CCCCCCCCCCCCCCCCCCC(=O)O)C(=O)O)C(=O)N[C@@H](CC(N)=O)C(=O)N[C@@H]([C@@H](C)O)C(=O)N[C@@H](C)C(=O)N[C@@H]([C@@H](C)O)C(=O)N1)[C@@H](C)O)C(=O)N[C@@H](CC(C)C)C(=O)N1CCC[C@H]1C(=O)N1CCC[C@H]1C(=O)N[C@H](C(=O)N[C@@H](CC(N)=O)C(=O)N[C@H](C(=O)NCC(=O)N[C@@H](CO)C(=O)N[C@@H](CC(N)=O)C(=O)N[C@H](C(=O)N[C@@H](Cc1ccc(O)cc1)C(N)=O)[C@@H](C)O)C(C)C)[C@@H](C)O
B5: N-alpha-[(S)-4-Carboxy-4-(19-carboxynonadecanoylamino)butyryl]-His-His-[His1,His17]-pramlintide (peptide)
peptide: HHHCNTATCATQRLANFLHHSSNNFGPILPPTNVGSNTY-NH2
modifications: disulfide 4-9; not fully specified (N-terminus); printed as N-alpha-[(S)-4-Carboxy-4-(19-carboxynonadecanoylamino)butyryl]-His-His-[His1,His17]-pramlintide
B6: N-alpha-[4-Carboxy-4-({4-[(19-carboxynonadecanoylamino)methyl]transcyclohexanecarbonyl}amino)butyryl]-[His1,His17]-pramlintide (peptide)
peptide: {C20 diacid-Trx-γGlu}-HCNTATCATQRLANFLHHSSNNFGPILPPTNVGSNTY-NH2
modifications: disulfide 2-7
SMILES: CC[C@H](C)[C@H](NC(=O)[C@@H]1CCCN1C(=O)CNC(=O)[C@H](Cc1ccccc1)NC(=O)[C@H](CC(N)=O)NC(=O)[C@H](CC(N)=O)NC(=O)[C@H](CO)NC(=O)[C@H](CO)NC(=O)[C@H](Cc1c[nH]cn1)NC(=O)[C@H](Cc1c[nH]cn1)NC(=O)[C@H](CC(C)C)NC(=O)[C@H](Cc1ccccc1)NC(=O)[C@H](CC(N)=O)NC(=O)[C@H](C)NC(=O)[C@H](CC(C)C)NC(=O)[C@H](CCCNC(=N)N)NC(=O)[C@H](CCC(N)=O)NC(=O)[C@@H](NC(=O)[C@H](C)NC(=O)[C@@H]1CSSC[C@H](NC(=O)[C@H](Cc2c[nH]cn2)NC(=O)CC[C@H](NC(=O)[C@H]2CC[C@H](CNC(=O)CCCCCCCCCCCCCCCCCCC(=O)O)CC2)C(=O)O)C(=O)N[C@@H](CC(N)=O)C(=O)N[C@@H]([C@@H](C)O)C(=O)N[C@@H](C)C(=O)N[C@@H]([C@@H](C)O)C(=O)N1)[C@@H](C)O)C(=O)N[C@@H](CC(C)C)C(=O)N1CCC[C@H]1C(=O)N1CCC[C@H]1C(=O)N[C@H](C(=O)N[C@@H](CC(N)=O)C(=O)N[C@H](C(=O)NCC(=O)N[C@@H](CO)C(=O)N[C@@H](CC(N)=O)C(=O)N[C@H](C(=O)N[C@@H](Cc1ccc(O)cc1)C(N)=O)[C@@H](C)O)C(C)C)[C@@H](C)O
B7: N-alpha-[2-(2-{2-[4-(S)-Carboxy-4-(19-carboxynonadecanoylamino)butyrylamino]ethoxy}ethoxy)acetyl]-His-[His1,Arg17]-pramlintide (peptide)
peptide: {C20 diacid-γGlu-AEEA}-HHCNTATCATQRLANFLRHSSNNFGPILPPTNVGSNTY-NH2
modifications: disulfide 3-8
SMILES: CC[C@H](C)[C@H](NC(=O)[C@@H]1CCCN1C(=O)CNC(=O)[C@H](Cc1ccccc1)NC(=O)[C@H](CC(N)=O)NC(=O)[C@H](CC(N)=O)NC(=O)[C@H](CO)NC(=O)[C@H](CO)NC(=O)[C@H](Cc1c[nH]cn1)NC(=O)[C@H](CCCNC(=N)N)NC(=O)[C@H](CC(C)C)NC(=O)[C@H](Cc1ccccc1)NC(=O)[C@H](CC(N)=O)NC(=O)[C@H](C)NC(=O)[C@H](CC(C)C)NC(=O)[C@H](CCCNC(=N)N)NC(=O)[C@H](CCC(N)=O)NC(=O)[C@@H](NC(=O)[C@H](C)NC(=O)[C@@H]1CSSC[C@H](NC(=O)[C@H](Cc2c[nH]cn2)NC(=O)[C@H](Cc2c[nH]cn2)NC(=O)COCCOCCNC(=O)CC[C@H](NC(=O)CCCCCCCCCCCCCCCCCCC(=O)O)C(=O)O)C(=O)N[C@@H](CC(N)=O)C(=O)N[C@@H]([C@@H](C)O)C(=O)N[C@@H](C)C(=O)N[C@@H]([C@@H](C)O)C(=O)N1)[C@@H](C)O)C(=O)N[C@@H](CC(C)C)C(=O)N1CCC[C@H]1C(=O)N1CCC[C@H]1C(=O)N[C@H](C(=O)N[C@@H](CC(N)=O)C(=O)N[C@H](C(=O)NCC(=O)N[C@@H](CO)C(=O)N[C@@H](CC(N)=O)C(=O)N[C@H](C(=O)N[C@@H](Cc1ccc(O)cc1)C(N)=O)[C@@H](C)O)C(C)C)[C@@H](C)O
B8: N-alpha-[(S)-4-Carboxy-4-(19-carboxynonadecanoylamino)butyryl]-Glu-Arg-[Glu1,His17,Gln21,Ala25,Pro26,Ser28,Ser29]-pramlintide (peptide)
peptide: X2-ERECNTATCATQRLANFLHHSSQNFGAPLSSTNVGSNTY-NH2
modifications: disulfide 4-9
SMILES: CC(C)C[C@H](NC(=O)[C@H](CCCNC(=N)N)NC(=O)[C@H](CCC(N)=O)NC(=O)[C@@H](NC(=O)[C@H](C)NC(=O)[C@@H]1CSSC[C@H](NC(=O)[C@H](CCC(=O)O)NC(=O)[C@H](CCCNC(=N)N)NC(=O)[C@H](CCC(=O)O)NC(=O)CC[C@H](NC(=O)CCCCCCCCCCCCCCCCCCC(=O)O)C(=O)O)C(=O)N[C@@H](CC(N)=O)C(=O)N[C@@H]([C@@H](C)O)C(=O)N[C@@H](C)C(=O)N[C@@H]([C@@H](C)O)C(=O)N1)[C@@H](C)O)C(=O)N[C@@H](C)C(=O)N[C@@H](CC(N)=O)C(=O)N[C@@H](Cc1ccccc1)C(=O)N[C@@H](CC(C)C)C(=O)N[C@@H](Cc1c[nH]cn1)C(=O)N[C@@H](Cc1c[nH]cn1)C(=O)N[C@@H](CO)C(=O)N[C@@H](CO)C(=O)N[C@@H](CCC(N)=O)C(=O)N[C@@H](CC(N)=O)C(=O)N[C@@H](Cc1ccccc1)C(=O)NCC(=O)N[C@@H](C)C(=O)N1CCC[C@H]1C(=O)N[C@@H](CC(C)C)C(=O)N[C@@H](CO)C(=O)N[C@@H](CO)C(=O)N[C@H](C(=O)N[C@@H](CC(N)=O)C(=O)N[C@H](C(=O)NCC(=O)N[C@@H](CO)C(=O)N[C@@H](CC(N)=O)C(=O)N[C@H](C(=O)N[C@@H](Cc1ccc(O)cc1)C(N)=O)[C@@H](C)O)C(C)C)[C@@H](C)O

The target in the assay is T1, Amylin 3(a) receptor (human calcitonin …). In words: cell-based or functional assay.
On to KCK([Glu-Glu-Glu-Glu-C20 diacid])TATCATQRLANFLHHSSDNFGPILPPTNVGSNTY-NH2 (disulfide 2-7) [N-epsilon3-(19-carboxynonadecanoyl-Glu-Glu-Glu-Glu)-[Lys3,His17,Asp21]-pramlintide], for which the “Potency Luciferase” value is 2 nM.

Take B1: the “Potency Luciferase” value amounted to 0.1 nM.

For {C20 diacid-γGlu-AEEA}-HCNTATCATQRLANFLHHSSNNFGPILPPTNVGSNTY-NH2 (disulfide 2-7), the “Potency Luciferase” value amounted to 0.09 nM.

As to B2, the “Potency Luciferase” value stood at 0.1 nM.

On to B3, for which the “Potency Luciferase” value was 0.1 nM.

As to B4, the “Potency Luciferase” value was 0.1 nM.

In the case of B5, the “Potency Luciferase” value worked out at 0.06 nM.

In the case of B6, the “Potency Luciferase” value stood at 0.1 nM.

Consider B7, for which the “Potency Luciferase” value was 0.2 nM.

On to B8, for which the “Potency Luciferase” value came to 0.1 nM.
